Test results as given in publication PMC2171502 (The Journal of Cell Biology, 2005).
Where “and” joins values, the source holds several entries; their conditions need not be identical. Equal entries are not always repeated.

B1: Vrp1p-His (full-length S. pombe verprolin Vrp1p with a COOH-terminal His-tag) (natural protein)
chain: MAPAPPPPPPAPAPAAAAPAPPLMTGDRSALLNSIQKGKKLKKATTNDRSAPVVGGGVVGERKSNTPKSFAAPPVPTGAPSLPTSSNNTQQAEERPSMPALGGLFAGGMPKLRHIGKSSASAAPPSAPAPPTPQSELRPPTSAPPRPSIPPPSPASAPPIPSKAPPIPSSLPPPAQPAAPVKSPPSAPSLPSAVPPMPPKVPPPPLSQAPVANTSSRPSSFAPPAGHAPNVTSESPKFPNRGPSIPSASVPPVPPSSYVLQQRPNRVDDHGRFHFKDDSYLPIPHPFLGVPKVYRGGSGTTVPLNLSSF

Key:
actin monomers = actin monomers (UniProt P68135 1-377); experiment: pull-down
[1] = target: B1; experiment: pull-down

| Kd (actin monomers) | Kd [1] | Binder |
| --- | --- | --- |
| 1000 nM and 900 nM and 800 nM | – | B1 |
| – | 4600 nM and 5600 nM | GST-Myo1p-23A (GST fused to the TH2-SH3-CA domains of the S. pombe myosin-I Myo1p tail) (domain or fragment, UniProt Q9Y7Z8 965-1217, looked up) TSKSKPFPRLATGGSTAAARGPRPVVQNKPAATKPVSMPAAKSKPAPMANPVSTAQQTQNRPPAPAMQARPNTTQAAAPVTSTTTTIKQATTVSASKPAPSTVTSAASSPSNISKPSAPVANNVSKPSAVPPPPPPPPAEVEKKDLYLALYDFAGRSPNEMTIKKDEIIEIVQKEPSGWWLALKNGAEGWVPATYVTEYKGSTPQTTASSTNVAAQANNNASPAEVNNLAGSLADALRMRASAVRGSDEEEDW |
